B1: Endogenous CD40 of LPS-stimulated murine ANA1 macrophage cells (receptor, UniProt P27512 20-289, looked up)
chain: LGQCVTCSDKQYLHDGQCCDLCQPGSRLTSHCTALEKTQCHPCDSGEFSAQWNREIRCHQHRHCEPNQGLRVKKEGTAESDTVCTCKEGQHCTSKDCEACAQHTPCIPGFGVMEMATETTDTVCHPCPVGFFSNQSSLFEKCYPWTSCEDKNLEVLQKGTSQTNVICGLKSRMRALLVIPVVMGILITIFGVFLYIKKVVKKPKDNEILPPAARRQDPQEMEDYPGHNTAAPVQETLHGCQPVTQEDGKESRISVQERQVTDSIALRPLV
notes: whole, on cells
B2: Peptide C (GCEVFGLGWRSYKH) (peptide)
peptide: GCEVFGLGWRSYKH
notes: Synthetic Hsp70 substrate peptide; also called peptide substrate; substrate peptide

Legend:
[1] = target: T1, Biotinylated recombinant Hsp70 (human, UniProt P0DMV8 2-641); test: fluorescence microscopy on LPS-stimulated ANA1 cells
T1 construct: mature; also called biotinylated Hsp70; biotin-labeled Hsp70; not shown: His tag
T1 sequence (P0DMV8 2-641): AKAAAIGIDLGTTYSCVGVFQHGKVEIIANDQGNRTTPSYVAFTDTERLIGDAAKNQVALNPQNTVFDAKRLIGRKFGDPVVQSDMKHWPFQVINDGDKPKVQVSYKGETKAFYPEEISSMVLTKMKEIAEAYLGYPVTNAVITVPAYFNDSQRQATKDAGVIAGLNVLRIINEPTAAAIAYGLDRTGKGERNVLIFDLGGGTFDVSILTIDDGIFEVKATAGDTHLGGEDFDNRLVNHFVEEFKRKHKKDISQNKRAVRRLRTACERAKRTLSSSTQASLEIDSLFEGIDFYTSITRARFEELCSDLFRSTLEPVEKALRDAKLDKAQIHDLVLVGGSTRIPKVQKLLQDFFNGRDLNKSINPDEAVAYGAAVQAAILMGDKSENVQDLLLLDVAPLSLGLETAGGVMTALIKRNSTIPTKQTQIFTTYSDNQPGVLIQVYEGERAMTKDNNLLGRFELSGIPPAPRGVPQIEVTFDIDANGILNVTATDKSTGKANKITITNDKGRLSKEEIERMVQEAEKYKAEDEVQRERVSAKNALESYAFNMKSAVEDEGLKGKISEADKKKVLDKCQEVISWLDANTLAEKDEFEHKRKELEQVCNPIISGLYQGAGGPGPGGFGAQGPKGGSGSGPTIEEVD
Procedure: ANA-1 cells were cultured in VLE-RPMI 1640 (Biochrom), supplemented with 10% FCS, 2 mM L-glutamine and antibiotics. For fluorescence microscopy, ANA1 cells were either stimulated with LPS (20 μg/ml, Sigma, Germany), or kept in an LPS-free medium (mock treatment) for 7 h. After stimulation, cells were harvested and incubated with 100 nM biotinylated Hsp70, biotinylated GST, or Hsp70/peptide C-biotin complex for 30 min at 0° C. in VLE-RPMI 1640. After incubation cells were processed for staining with streptavidin-TRITC (Sigma, Germany), fixed with paraformaldehyde and analyzed by fluorescence microscopy (Axiovert 35, Zeiss) as described (Sondermann et al., 2000). […] Twenty-four h post-transfection cells were incubated with 250 nM biotinylated Hsp70, biotinylated GST or Hsp70/peptide C-biotin complex for 30 min at 0° C. in DMEM, fixed, stained with streptavidin-TRITC (Sigma, Germany), and analyzed by fluorescence microscopy as described (Sondermann et al., 2000, idem). […] Stably transfected cell lines were analyzed by immunoblotting for CD40 expression using an anti-CD40 antibody (CSA180, Stressgen). […]

[2] = target: T2, Recombinant human His6-tagged Hsp70 (human, UniProt P0DMV8 2-641); test: titration of peptide C in the GST-CD40 pull-down of His6-Hsp70-ADP, quantified immunoblot
T2 construct: mature; also called His6-Hsp70; human Hsp70
T2 sequence (P0DMV8 2-641): as above
Procedure: For binding assays with recombinant Hsp70 and its domains, 3 μM His6-Hsp70 or its His6-tagged domains were incubated with 2 mM ATP, 2 mM ADP or 2 mM ADP and 28 μM peptide C in 50 μl binding buffer (10 mM MOPS/KOH, pH 7.2, 150 mM KCl and 3 mM MgCl2) for 30 min at 37° C. In competition experiments binding was probed with either a 10-fold excess of Hsp70, the two domains, or DnaK, or with a 5-fold excess of Hip or Bag 1 for 10 min at 0° C. To this end, Hsp70, N70, C70 and DnaK were preincubated with ADP, ATP and peptide C as described above. For comparison of CD40 binding of Hsp70 and its N-terminal domain, Hsp70 was preincubated in the presence or absence (mock treatment) of a 30-fold molar excess of peptide C. 3 μM of GST or GST-CD40 was added to the samples and incubated for 20 min at 16° C. For titration of peptide C, 5- to 50-fold excess of peptide C (15-150 μM) was added to the preincubation of Hsp70. Thereafter the samples were combined with 20 μl of 1% BSA-treated Glutathione Sepharose 4 Fast Flow and incubated in the presence of 2 mM DTT for another 20 min at 16° C. […] 10 μl of the eluates were subjected to SDS-PAGE and analyzed by immunoblotting using a Penta-His-antibody (Quiagen). Blot signals were quantified by Quantity One (Biorad).

Binder	binding result [1]	ka (saturable effect of peptide C on binding of Hsp70-ADP to CD40) [2] [µM]
B1	binds	–
B2	–	~30

From US20040071656A1 (published 2004)
